We go through 2 substances from US20210269492A1.

The experiment concerns the target Piromyces ScaA fragment (Piromyces). Kind of experiment: SPR equilibrium analysis.

The substance W28F dockerin mutant yielded a dissociation constant (Kd) of 2000 nM.

Turning to P. finnis single dockerin domain, the dissociation constant Kd amounted to 700 nM.
